Results taken from paper PMC11508043 (Nature, 2023).

Target: Recombinant wild-type human histone H1.0 (human)
Experiment: turbidity

- ProTα:H1 ratio at maximum phase separation: 1.2 ProTα:H1
B1: ProTα (unlabelled) (natural protein, human)
chain: GPMSDAAVDTSSEITTKDLKEKKEVVEEAENGRDAPANGNANEENGEQEADNEVDEEEEEGGEEEEEEEEGDGEEEDGDEDEEAESATGKRAAEDDEDDDVDTKKQKTDEDD
